Laboratory results: paper PMC3019558 (The Journal of Cell Biology, 2011)

Assays:
GDNF, NRTN, and ARTN = assay: SPR
[1] = target: HS-carrying extracellular domain of syndecan-3 purified from rat brain (rat, UniProt P33671 45-387, heparan sulfate (HS) chains); assay: SPR
Chain of HS-carrying extracellular domain of syndecan-3 purified from rat brain (rat, UniProt P33671 45-387, heparan sulfate (HS) chains) (P33671 45-387): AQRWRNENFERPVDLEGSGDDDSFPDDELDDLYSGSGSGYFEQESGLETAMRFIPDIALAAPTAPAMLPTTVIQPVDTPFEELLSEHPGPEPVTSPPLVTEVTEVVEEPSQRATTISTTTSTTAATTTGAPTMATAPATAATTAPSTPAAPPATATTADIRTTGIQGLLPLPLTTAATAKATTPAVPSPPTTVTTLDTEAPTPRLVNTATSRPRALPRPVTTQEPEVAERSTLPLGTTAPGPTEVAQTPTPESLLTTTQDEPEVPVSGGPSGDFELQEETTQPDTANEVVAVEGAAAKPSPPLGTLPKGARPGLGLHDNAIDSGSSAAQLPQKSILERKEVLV

Chain of HS-carrying extracellular domain of syndecan-3 purified from rat brain (from UniProt P33671 45-387) (domain or fragment) (P33671 45-387): as above

Kd (GDNF, NRTN, and ARTN) | Kd [1] | Molecule
10 to 50 nM |  | HS-carrying extracellular domain of syndecan-3 purified from rat brain (from UniProt P33671 45-387) (domain or fragment)
 | > 70 nM | persephin (PSPN) (ligand, UniProt O60542 61-156, looked up) ALSGPCQLWSLTLSVAELGLGYASEEKVIFRYCAGSCPRGARTQHGLALARLQGQGRAHGGPCCRPTRYTDVAFLDDRHRWQRLPQLSAAACGCGG
